Where two headings read alike, the source gives them in different places.
How the values were obtained:
HTTExon1Q48 [1] = biological target: HTTExon1Q48
HTTExon1Q48 [2] = biological target: HTTExon1Q48; remark: listed apart in the source
DNAJB1^wt [3] = biological target: T1, DNAJB1^wt (human, UniProt P25685 1-340); assay: cross-linking; XL-MS: HTTExon1Q23/48 incubated with Hsc70, DNAJB1 and Apg2 in the presence of ATP; 5–10 μM total protein, 0.5–1 mM SDA, 30 min at room temperature, UV photoactivation, SDS-PAGE, in-gel digestion with elastase, LC/MS; conditions: both partners purified
T1 construct: DNAJB1 (human Hsp40), class B J-domain protein; primers M1/S1 start at the start codon and the stop codon follows residue 340 (primers E, T1); also called wt DNAJB1; Hsp40; source: E. coli BL21-CodonPlus (DE3)-RIPL, purified (Ni-NTA; His-Smt3 tag cleaved with His-Ulp1); not shown: 6His-Smt3, N-terminal, cleaved

[4] = biological target: the molecule itself; assay: FRET or BRET; fibrilization assay: equimolar GST-HTTExon1Q48-CyPet and GST-HTTExon1Q48-YPet, 0.75 µM in all; 30 mM HEPES pH 7.4, 150 mM NaCl, 5 mM MgCl2, 1 mM DTT, 5 mM ATP with regenerating system; without chaperones; FRET rises on aggregation
DNAJB1^wt [5] = biological target: T1, DNAJB1^wt; assay: co-sedimentation; HTT fibril-binding assay: 2 µM HTTExon1Q48 aggregated 4.5 h at 20 °C; DNAJB1 variant added at 1 µM, 1 h at RT; sedimented at 20.000 rpm 30 min 4 °C; pellet analysed by Western blot; conditions: both partners purified

T1 sequence (P25685 whole entry): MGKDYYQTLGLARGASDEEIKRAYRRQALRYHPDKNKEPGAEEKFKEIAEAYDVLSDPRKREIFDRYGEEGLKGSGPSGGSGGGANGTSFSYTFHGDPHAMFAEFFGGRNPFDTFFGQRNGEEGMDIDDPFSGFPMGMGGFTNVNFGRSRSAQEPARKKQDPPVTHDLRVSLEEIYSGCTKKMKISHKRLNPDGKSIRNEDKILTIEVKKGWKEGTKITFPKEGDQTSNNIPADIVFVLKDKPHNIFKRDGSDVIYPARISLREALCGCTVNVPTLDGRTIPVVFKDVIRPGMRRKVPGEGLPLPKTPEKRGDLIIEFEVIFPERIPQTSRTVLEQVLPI

DNAJB1^H244F (from UniProt P25685 1-340) (natural protein)
half-life (T1/2) of HTTExon1Q48 fibrilization, FRET assay, with Hsc70, Apg2 and ATP (HTTExon1Q48 [1]): 10 h

DNAJB1^H244Q (from UniProt P25685 1-340) (natural protein)
half-life (T1/2) of HTTExon1Q48 fibrilization, FRET assay, with Hsc70, Apg2 and ATP (HTTExon1Q48 [1]): 24 h

DNAJB1^H244R (from UniProt P25685 1-340) (natural protein)
half-life (T1/2) of HTTExon1Q48 fibrilization, FRET assay, with Hsc70, Apg2 and ATP (HTTExon1Q48 [1]): 17 h

DNAJB1^K242A (from UniProt P25685 1-340) (natural protein)
half-life (T1/2) of HTTExon1Q48 fibrilization, FRET assay, with Hsc70, Apg2 and ATP (HTTExon1Q48 [2]): 16 h

B1: HTTExon1Q48 (domain or fragment)
chain: MATLEKLMKAFESLKSFQQQQQQQQQQQQQQQQQQQQQQQQQQQQQQQQQQQQQQQQQQQQQQQQPPPPPPPPPPPQLPQPPPQAQPLLPQLQPPPPPPPPPPGPAAAEEPLHRP
notes: first exon of huntingtin with an expanded stretch of 48 glutamines; The XL-MS methods say only HTT; the only purification told is that of GST-HTTExon1Q48-CyPet/YPet (pGEX-6P1), so tags in the XL-MS sample are not certain; In the FRET assay two forms (CyPet and YPet) are mixed equimolar; also called GST-HTTExon1Q48-CyPet/YPet; HTTExon1Q48-CyPet/YPet; source: E. coli BL21-CodonPlus (DE3)-RIPL, …
binding result (DNAJB1^wt [3]): binds
binding result [4]: binds

B2: HTTExon1Q48 fibrils (other)
chain: MATLEKLMKAFESLKSFQQQQQQQQQQQQQQQQQQQQQQQQQQQQQQQQQQQQQQQQQQQQQQQQPPPPPPPPPPPQLPQPPPQAQPLLPQLQPPPPPPPPPPGPAAAEEPLHRP
notes: first exon of huntingtin with 48 glutamines, as amyloid fibrils; Amyloid fibrils of many copies; also called HTT fibrils; preformed HTTExon1Q48 fibrils; not shown: GST, N-terminal, cleaved; CyPet, C-terminal, kept
binding result (DNAJB1^wt [5]): binds

B3: HTTExon1Q48ΔP2 (domain or fragment)
chain: MATLEKLMKAFESLKSFQQQQQQQQQQQQQQQQQQQQQQQQQQQQQQQQQQQQQQQQQQQQQQQQPPPPPPPPPPPQLPQPPPQAQPLLPQAAEEPLHRP
notes: Used soluble in the FRET assay and as fibrils in the disaggregation assay; also called HTTExon1Q48ΔP2-CyPet/YPet; source: E. coli BL21-CodonPlus (DE3)-RIPL, purified (glutathione sepharose); not shown: CyPet or YPet, C-terminal, kept
binding result [4]: binds

— article PMC9365803, “Identification of a HTT-specific binding motif in DNAJB1 essential for suppression and disaggregation of HTT” (Nature Communications, 2022)
